The supplement of paper PMC6757056
± gives the standard deviation of the averaged measurements.

B1: library; a variant is named by its letters at N, in order (parent)
chain: GCUGUCACCGGUGCUUGGUACGUUAUAUUCAGCCGGUCUGAUGAGUCUNNNNNNAGACGAAACAGC

Tests used:
(6R,S)-folinic acid [1] = variants of: B1; experiment: FACS-Seq fitted mean relative fluorescence mCherry/BFP without ligand (log10 relative fluorescence); HEK293T overexpressing SLC46A1; higher = higher reporter protein expression; conditions: without (6R,S)-folinic acid; ligand present: no
Method in brief: (§1)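 Cells were sorted into 6 bins on the mCherry/BFP ratio after 48 h with or without ligand. These were enriched HEK293T cells transduced by lentivirus with a ribozyme-switch mCherry reporter plus an EF1α-BFP marker. Fluorescence was obtained by fitting a normal distribution to sequencing-derived bin counts. Counts came from MiSeq sequencing of PCR-amplified, barcoded genomic DNA, binned by log10(mCherry/BFP), with means scaled to five spiked-in control ribozymes.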

(6R,S)-folinic acid [2] = variants of: B1; experiment: normalized RNA/DNA level without ligand (relative to sTRSVctl = 100) (log10 (% of sTRSVctl)); HEK293T overexpressing SLC46A1; higher = less ribozyme self-cleavage, higher mRNA level; conditions: without (6R,S)-folinic acid; ligand present: no
Method in brief: (§2)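 HEK293T cells received ligand, where used, 1 h before being transfected with 4 µg per 6-well well of library plasmids encoding reporter-linked ribozyme switches. After 72 h, RNA was extracted with EDTA and sequenced. RNA level was derived from RNA reads per DNA read, normalized to a spiked-in non-cleaving sequence or the top sequences, then scaled and log-transformed. Values were ×100 then log10, the top set was 25 sequences, and the minimum was 100 DNA reads.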

(6R,S)-folinic acid [3] = variants of: B1; experiment: FACS-Seq fitted mean relative fluorescence mCherry/BFP with ligand (log10 relative fluorescence); HEK293T overexpressing SLC46A1; ligand concentration (+) FACS-Seq: 6 mM; higher = higher reporter protein expression; conditions: with (6R,S)-folinic acid; ligand present: yes
Method in brief: as §1

(6R,S)-folinic acid [4] = variants of: B1; experiment: normalized RNA/DNA level with ligand (relative to sTRSVctl = 100) (log10 (% of sTRSVctl)); HEK293T overexpressing SLC46A1; ligand concentration (+) RNA-Seq: 6 mM; higher = less ribozyme self-cleavage, higher mRNA level; conditions: with (6R,S)-folinic acid; ligand present: yes
Method in brief: as §2

| Variant | FACS-Seq fitted mean (log10) ((6R,S)-folinic acid [1]) | normalized RNA/DNA level without ligand (log10) ((6R,S)-folinic acid [2]) | FACS-Seq fitted mean (log10) ((6R,S)-folinic acid [3]) | normalized RNA/DNA level with ligand (log10) ((6R,S)-folinic acid [4]) |
| --- | --- | --- | --- | --- |
| AUUUGG | 0.293 ± 0.04 | 1.88 ± 0.0039 | 0.37 ± 0.04 | 1.96 ± 0.023 |
| GUUAUG | 0.244 ± 0.011 | 1.929 ± 0.0065 | 0.431 ± 0.16 | 1.99 ± 0.0045 |
| GUUAUA | -0.102 ± 0.13 | 1.99 ± 0.031 | -0.0941 ± 0.099 | 2.012 ± 0.019 |
| GUUCUA | 0.333 ± 0.067 | 2.03 ± 0.0066 | 0.412 ± 0.031 | 2.035 ± 0.0031 |
| GUGUGC | -0.0812 ± 0.0037 | 1.758 ± 0.017 | 0.131 ± 0.14 | 1.979 ± 0.0082 |
| GUGUGU | 0.164 ± 0.1 | 1.942 ± 0.0063 | 0.271 ± 0.083 | 2.02 ± 0.036 |
| GUGUGA | 0.383 ± 0.041 | 1.9667 ± 0.00054 | 0.136 ± 0.21 | 2.038 ± 0.013 |
| AUUAAA | 0.22 ± 0.063 | 1.974 ± 0.0062 | 0.296 ± 0.21 | 1.992 ± 0.0089 |
| UUUGGA | 0.333 ± 0.049 | 1.9 ± 0.015 | 0.499 ± 0.056 | 1.98 ± 0.029 |
| UUUGGG | 0.388 ± 0.062 | 1.71 ± 0.022 | 0.73 ± 0.13 | 1.94 ± 0.048 |
| GAAAGU | – | 1.9823 ± 0.00097 | – | 2.02 ± 0.034 |
| GAAAGC | – | 1.966 ± 0.0051 | – | 2.0058 ± 0.0012 |
| UUGUAU | -0.387 ± 0.048 | 1.99 ± 0.02 | -0.176 ± 0.12 | 2.014 ± 0.0072 |
| AAAAGA | – | 1.957 ± 0.0042 | – | 2.02 ± 0.021 |
| AAAAGU | – | 1.94 ± 0.013 | – | 2 ± 0.041 |
| GUUUUA | 0.327 ± 0.011 | 2 ± 0.0092 | 0.461 ± 0.024 | 2.02 ± 0.029 |
| GUUUUC | 0.421 ± 0.019 | 2.03 ± 0.021 | 0.346 ± 0.14 | 2 ± 0.028 |
| GAACAU | – | 1.9736 ± 0.0012 | – | 2.01 ± 0.035 |
| GAACAC | – | 1.998 ± 0.018 | – | 2.014 ± 0.0037 |
| GAAACA | – | 2.017 ± 0.018 | – | 2.04 ± 0.026 |
| GAAACG | – | 1.961 ± 0.0057 | – | 2 ± 0.038 |
| GAAACC | – | 2.035 ± 0.013 | – | 2.03 ± 0.033 |
| CAAACA | – | 1.979 ± 0.014 | – | 2 ± 0.044 |
| CAAACG | – | 2.02 ± 0.0085 | – | 2.03 ± 0.036 |

| Variant | FACS-Seq fitted mean (log10) ((6R,S)-folinic acid [1]) | normalized RNA/DNA level without ligand (log10) ((6R,S)-folinic acid [2]) | FACS-Seq fitted mean (log10) ((6R,S)-folinic acid [3]) | normalized RNA/DNA level with ligand (log10) ((6R,S)-folinic acid [4]) |
| --- | --- | --- | --- | --- |
| UUUUAG | 0.393 ± 0.03 | 1.836 ± 0.0045 | 0.488 ± 0.26 | 1.97 ± 0.051 |
| UUUUAC | 0.482 ± 0.098 | 1.975 ± 0.002 | 0.507 ± 0.18 | 1.97 ± 0.04 |
| GAAAUU | – | 2.03 ± 0.0031 | – | 2.05 ± 0.025 |
| GAAAUC | – | 2.044 ± 0.0097 | – | 2.027 ± 0.018 |
| AAAACC | – | 2.0338 ± 0.0018 | – | 2.02 ± 0.048 |
| GAACCG | – | 2.018 ± 0.017 | – | 2.03 ± 0.038 |
| GAACCA | – | 2.0209 ± 0.0019 | – | 2.01 ± 0.037 |
| GAACCC | – | 2.02 ± 0.018 | – | 2.017 ± 0.0044 |
| UUUACU | 0.0671 ± 0.017 | 2.032 ± 0.0085 | -0.0776 ± 0.03 | 2.033 ± 0.013 |
| UUUACC | 0.636 ± 0.0052 | 1.996 ± 0.018 | 0.724 ± 0.077 | 1.97 ± 0.036 |
| CAAGAU | – | 1.97 ± 0.009 | – | 2.01 ± 0.025 |
| CAAGAC | – | 2.026 ± 0.0013 | – | 2.03 ± 0.038 |
| AAAGCC | – | 2.03 ± 0.013 | – | 2.05 ± 0.028 |
| AAAGCU | – | 2.003 ± 0.018 | – | 2.013 ± 0.013 |
| UAACGU | – | 1.95 ± 0.028 | – | 2.003 ± 0.013 |
| UAACCU | – | 2.01 ± 0.024 | – | 2.018 ± 0.0082 |
| UAACCC | – | 1.991 ± 0.011 | – | 2 ± 0.035 |
| CAAAGG | – | 1.909 ± 0.0072 | – | 2 ± 0.021 |
| CAAAGA | – | 1.988 ± 0.015 | – | 1.99 ± 0.034 |
| CAAAGC | – | 1.992 ± 0.015 | – | 2 ± 0.04 |
| CAAAGU | – | 1.983 ± 0.013 | – | 2.01 ± 0.025 |
| UUUGCG | 0.0287 ± 0.045 | 1.867 ± 0.0062 | 0.0548 ± 0.11 | 1.98 ± 0.042 |
| UUUGCU | 0.805 ± 0.017 | 2.043 ± 0.02 | 0.618 ± 0.24 | 2.01 ± 0.084 |
